How the values were obtained:
[1] = molecular target: Basigin (residues 22-205) (UniProt P35613); test: SPR, RH5ΔNL (8 to 0.0625 µM) injected over immobilized basigin, 1:1 binding model; RH5ΔNL fragment (residues 140-526 lacking 248-296)
[2] = molecular target: Basigin (residues 22-205) (UniProt P35613); test: not stated; given for comparison with the SPR value of RH5ΔNL; full-length RH5 (FLRH5)

Substance | Kd [1] | Kd [2]
RH5ΔNL (PfRH5 fragment, 7G8 strain, residues 140-526 lacking residues 248-296, C-terminal hexa-histidine tag) (from UniProt Q8IFM5 140-526) (ligand) | 1.3 µM | –
full-length PfRH5 (7G8 strain), recombinant, C-terminal hexa-histidine tag (from UniProt Q8IFM5 24-526) (ligand) | – | 1.1 µM
